In patent US20250222105A1 (University of Texas, published 2025):

Each binder was assayed against T1, human receptor tyrosine kinase like orphan receptor 1 (ROR1) expressed on cells (human, UniProt Q01973 30-937) (assay: cell ELISA and flow cytometry on L cells transfected with human ROR1; also positive staining of ROR1+ lymphoma lines Jeko-1, SP-53, CA46).
T1 construct: whole, on cells; also called human ROR1; ROR1-L cells

binding result | Binder
binds | anti-ROR1 monoclonal antibody A148 (antibody, V domains shown, Mouse monoclonal antibody from hybridoma) VH: DVQLQESGPGLVKPSQSLSLTCSVSGYSITSGYYWNWIRQFPGNKLEWMGYISNDGSNKYKPSLKNRISITRDTSKNQFFLKLNSVTTEDTATYYCARFPLINYDPWLAYWGQGTLVTVSA VL: DVLMTQTPLSLPVSLGDQASISCRSSQNVVHRNGNTYLEWYLQKPGQSPKLLIYKVSNRFSGVPDRFSGSGSGTDFTLKISRVEAEDLGVYYCFQGSHVPWTFGGGTKLEIK
binds | anti-ROR1 monoclonal antibody A142 (antibody, V domains shown, Mouse monoclonal antibody from hybridoma) VH: EVQLQQSGPDLVKPGASVKISCKASGYSFTGYYMHWVKQSHGKSLEWIGRVYPNNGGTSYNQKFKGKAILTVDKSSTTAYMELRSLTSEDSAVYYCALIHYYGFYSMDYWGQGTSVTVSS VL: DVLMTQTPLSLPVSLGDQASISCRSSQSIVHSNGNTYLEWYLQKPGQSPKLLIYKVSNRFSGVPDRFSGSGSGTDFTLKISRVEAEDLGVYYCFQGSHVPWTFGGGTKLEIN
binds | anti-ROR1 monoclonal antibody A130 (antibody, V domains shown, Mouse monoclonal antibody from hybridoma) VH: DVQLQESGPGLVKPSQSLSLTCSVTGYSITSGYYWNWIRQFPGNKLEWMGYIRNDGSNNYNPSLKNRISITRDTSKNQFFLKLNSVTTEDTATYYCARFPLINYDPWFAYWGQGTLVTVSA VL: ETTVTQSPASLSVATGEKVTIRCITSTDIDDDMNWYQQKPGEPPKLLISEANTLRPGVPSRFSSSGYGTDFVFTIENTLSEDVADYYCLQSYNMPLTFGAGTTLELK
binds | anti-ROR1 monoclonal antibody A140 (antibody, V domains shown, Mouse monoclonal antibody from hybridoma) VH: DVQLQESGPGLVKPSQSLSLTCSVSGYSITSGYYWNWIRQFPGNKLEWMGYISNDGNNKYKPSLKNRISITRDTSKNQFFLKLNSVTAEDTATYYCARFPLINYDPWLAYWGQGTLVTVSA VL: DVLMTQTPLSLPVSLGDQASISCRSSQSIVHSNGNTYLEWYLQKPGQSPKLLIYKVSNRFSGVPDRFSGSGSGTDFTLKISRVEAEDLGVYYCFQGSHVPWTFGGGTKLEIN
binds | anti-ROR1 monoclonal antibody A89 (antibody, V domains shown, Mouse monoclonal antibody from hybridoma (BALB/c mice immunized with ROR1-expressing L cells)) VH: DVQLQESGPGLVKPSQSLSLTCSVSGYSITSGYYWSWIRQFPGNKLEWMGYISNDGSNKYKPSLKNRISITRDTSKNQFFLKLKSVTTEDTATYYCARFPLINYDPWLAYWGQGTLVTVSA VL: DVLMTQTPLSLPVSLGDQASISCRSSQSIVHSNGNTYLEWYLQKPGQSPKLLIYKVSNRFSGVPDRFSGSGSGTDFTLKISRVEAEDLGVYYCFQGSHVPWTFGGGTKLEIN
binds | anti-ROR1 monoclonal antibody A129 (antibody, V domains shown, Mouse monoclonal antibody from hybridoma) VH: DVQLQESGPGLVKPSQSLSLTCSVTGYSITSGYYWNWIRQFPGNKLEWMGYIRNDGSNNYNPSLKNRISITRDTSKNQFFLKLNSVTTEDTATYYCARFPLINYDPWFAYWGQGTLVTVSA VL: DVLMTQAPLSLPVSLGDQASISCRSSQNVVHRNGNTYLEWYLQKPGQSPKLLIYKVSNRFSGVPDRFSGSGSGTDFTLKISRVEAEDLGVYYCFQGSHVPWTFGGGTKLEIK
binds | anti-ROR1 monoclonal antibody A97 (antibody, V domains shown, Mouse monoclonal antibody from hybridoma) VH: EVQLQQSGPELEKPGASVKISCKASGYSFIGYSMNWVRQSDGKSLEWIGNIDPYYGGTSYNLKFKGKATLTVDKSSSTAYMQLKSLTSEDSAVYYCARLGRGYFDYWGQGTTLTVSS VL: DIVLTQSPATLSVTPGDSVSLSCRASQSITNNLHWYQQKSHESPRLLIKSASQSISGIPSRFSGSGSGTDFTLSINSVETEDFGMYFCQQSNSWPHTFGGGTKLEIK
